We go through six molecules from publication PMC5493754, “Myosin 7 and its adaptors link cadherins to actin” (Nature Communications, 2017).

Sequences and labels used below:
T1: Myosin 7a MF1.SH3 (human, UniProt Q13402-1 991-1692, residues 1523-1560 were deleted from MF1)
T1 construct: Myosin 7a, human, N-terminal MyTH4-FERM domain and SH3, residues 991-1692 of UniProt Q13402-1; residues 1523-1560 deleted; Thrombin site of the vector replaced by an SSG linker; also called M7a MF1.SH3; Myo7a MF1.SH3; source: E. coli (BL21-AI, BL21 (DE3) Rosetta or BL21-Gold (DE3)), purified (Histrap, CaptoQ, gel filtration)
T1 sequence (looked up): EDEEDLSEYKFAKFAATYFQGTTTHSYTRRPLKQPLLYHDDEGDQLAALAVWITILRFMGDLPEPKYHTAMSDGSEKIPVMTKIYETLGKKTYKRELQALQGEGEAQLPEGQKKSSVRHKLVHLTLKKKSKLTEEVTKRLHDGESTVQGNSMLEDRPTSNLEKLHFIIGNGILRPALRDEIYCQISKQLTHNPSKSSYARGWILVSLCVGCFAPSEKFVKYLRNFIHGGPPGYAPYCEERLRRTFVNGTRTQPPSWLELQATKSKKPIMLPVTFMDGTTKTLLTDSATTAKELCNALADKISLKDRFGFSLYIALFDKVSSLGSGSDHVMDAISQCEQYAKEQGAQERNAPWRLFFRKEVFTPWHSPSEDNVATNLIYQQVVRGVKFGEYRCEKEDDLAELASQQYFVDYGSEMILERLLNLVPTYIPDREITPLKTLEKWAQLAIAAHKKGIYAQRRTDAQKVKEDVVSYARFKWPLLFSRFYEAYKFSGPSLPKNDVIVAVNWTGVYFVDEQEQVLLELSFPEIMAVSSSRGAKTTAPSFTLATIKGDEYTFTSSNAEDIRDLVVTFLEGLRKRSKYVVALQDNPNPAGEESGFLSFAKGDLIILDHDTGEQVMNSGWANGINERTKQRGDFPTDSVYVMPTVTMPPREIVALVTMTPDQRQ

T2: Myosin 7b MF1.SH3 (human, UniProt Q6PIF6 958-1586)
T2 construct: also called M7b MF1.SH3; Myo7b MF1.SH3; source: E. coli (BL21-AI, BL21 (DE3) Rosetta or BL21-Gold (DE3)), purified (Histrap, CaptoQ, gel filtration)
T2 sequence: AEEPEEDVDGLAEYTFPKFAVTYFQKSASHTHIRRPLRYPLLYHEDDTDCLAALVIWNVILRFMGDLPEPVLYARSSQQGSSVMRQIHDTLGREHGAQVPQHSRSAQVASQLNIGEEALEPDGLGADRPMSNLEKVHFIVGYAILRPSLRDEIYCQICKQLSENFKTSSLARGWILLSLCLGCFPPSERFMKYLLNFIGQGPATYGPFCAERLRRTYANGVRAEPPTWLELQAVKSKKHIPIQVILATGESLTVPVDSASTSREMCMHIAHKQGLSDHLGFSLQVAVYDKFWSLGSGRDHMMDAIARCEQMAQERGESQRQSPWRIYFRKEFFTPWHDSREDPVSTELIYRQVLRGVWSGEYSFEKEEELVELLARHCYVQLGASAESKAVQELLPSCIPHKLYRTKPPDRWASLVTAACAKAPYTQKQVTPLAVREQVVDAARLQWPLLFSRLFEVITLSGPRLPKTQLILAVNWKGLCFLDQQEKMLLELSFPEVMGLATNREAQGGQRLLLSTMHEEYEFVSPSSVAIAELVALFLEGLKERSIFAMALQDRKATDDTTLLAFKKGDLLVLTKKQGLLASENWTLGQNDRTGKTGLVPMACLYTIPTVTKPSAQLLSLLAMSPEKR

T3: YFP-Myosin 7b MF1.SH3 (human, UniProt Q6PIF6 958-1586)
T3 construct: Myosin 7b, human, MF1.SH3, residues 958-1586 of UniProt Q6PIF6; pET14-YFP vector; also called ^YFPM7b MF1.SH3; source: E. coli (BL21-AI, BL21 (DE3) Rosetta or BL21-Gold (DE3)), purified (Histrap, CaptoQ, gel filtration)
T3 sequence: T2 sequence

T4: Myo7a MF1.SH3 (Mus musculus, UniProt P97479)
T4 chain: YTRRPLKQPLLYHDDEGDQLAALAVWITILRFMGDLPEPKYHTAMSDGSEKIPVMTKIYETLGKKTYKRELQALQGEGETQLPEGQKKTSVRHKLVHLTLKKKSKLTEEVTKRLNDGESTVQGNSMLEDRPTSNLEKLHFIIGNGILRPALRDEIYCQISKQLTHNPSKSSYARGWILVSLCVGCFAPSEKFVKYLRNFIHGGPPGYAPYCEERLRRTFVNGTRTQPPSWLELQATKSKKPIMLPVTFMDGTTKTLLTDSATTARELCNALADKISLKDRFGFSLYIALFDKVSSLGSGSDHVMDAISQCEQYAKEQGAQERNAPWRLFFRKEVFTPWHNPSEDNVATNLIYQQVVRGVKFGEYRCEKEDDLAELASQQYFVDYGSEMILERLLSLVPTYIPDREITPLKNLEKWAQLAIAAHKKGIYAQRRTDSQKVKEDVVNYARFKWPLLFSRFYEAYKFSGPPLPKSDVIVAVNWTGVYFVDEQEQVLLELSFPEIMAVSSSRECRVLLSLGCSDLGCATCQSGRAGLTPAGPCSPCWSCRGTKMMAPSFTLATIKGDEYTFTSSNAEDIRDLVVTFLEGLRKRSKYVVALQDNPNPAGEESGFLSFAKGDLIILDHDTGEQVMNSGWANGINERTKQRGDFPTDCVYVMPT

T5: YFP-Full length (FL)-harmonin (harmonin-a1) (human, UniProt Q9Y6N9-1 1-552)
T5 construct: Harmonin-a1 (USH1C), human, residues 1-552 of UniProt Q9Y6N9-1; also called ^YFPFL (isoA); ^YFPFL; source: E. coli BL21 (DE3) Rosetta, purified (Glutathione Sepharose 4B, size-exclusion chromatography)
T5 sequence (looked up): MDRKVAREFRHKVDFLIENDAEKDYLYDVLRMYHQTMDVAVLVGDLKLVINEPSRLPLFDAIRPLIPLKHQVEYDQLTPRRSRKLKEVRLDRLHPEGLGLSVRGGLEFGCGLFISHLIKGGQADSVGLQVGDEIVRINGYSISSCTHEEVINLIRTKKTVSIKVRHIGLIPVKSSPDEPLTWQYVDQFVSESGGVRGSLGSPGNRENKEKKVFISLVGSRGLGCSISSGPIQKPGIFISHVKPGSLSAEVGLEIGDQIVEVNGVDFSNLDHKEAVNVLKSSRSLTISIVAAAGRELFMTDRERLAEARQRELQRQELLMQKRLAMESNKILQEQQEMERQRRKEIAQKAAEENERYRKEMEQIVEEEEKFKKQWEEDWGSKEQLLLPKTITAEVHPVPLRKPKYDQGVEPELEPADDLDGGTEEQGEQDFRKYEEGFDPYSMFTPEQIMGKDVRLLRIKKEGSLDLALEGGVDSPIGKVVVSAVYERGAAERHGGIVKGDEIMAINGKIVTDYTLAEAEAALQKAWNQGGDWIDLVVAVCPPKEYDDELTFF

B1: SANS_(CEN-PBM) (domain or fragment, UniProt Q495M9 300-461, looked up)
chain: DSGHDSLFTRPGLGTMVFRRNYLSSGLHGLGREDGGLDGVGAPRGRLQSSPSLDDDSLGSANSLQDRSCGEELPWDELDLGLDEDLEPETSPLETFLASLHMEDFAALLRQEKIDLEALMLCSDLDLRSISVPLGPRKKILGAVRRRRQAMERPPALEDTEL
notes: source: E. coli (BL21-AI, BL21 (DE3) Rosetta or BL21-Gold (DE3)), purified (Histrap, CaptoQ, gel filtration)
B2: ANKS4B_(CEN-PBM) with YFP-harmonin NPDZ1.PDZ2 (complex)
chain 1: SVHHESILNRPGLGSIVFRRNRISSPEDISDSKREFGFKLPSELLQRQGASEADEGAADEEGEENGLKDDLPWDDDEVEWEEDVVDATPLEVFLLSQHLEEFLPIFKREQIDLEALLLCSDEDLQSIQMQLGPRKKVLNAINRRKQVLQQPGQLVDTSL
chain 2: MDRKVAREFRHKVDFLIENDAEKDYLYDVLRMYHQTMDVAVLVGDLKLVINEPSRLPLFDAIRPLIPLKHQVEYDQLTPRRSRKLKEVRLDRLHPEGLGLSVRGGLEFGCGLFISHLIKGGQADSVGLQVGDEIVRINGYSISSCTHEEVINLIRTKKTVSIKVRHIGLIPVKSSPDEPLTWQYVDQFVSESGGVRGSLGSPGNRENKEKKVFISLVGSRGLGCSISSGPIQKPGIFISHVKPGSLSAEVGLEIGDQIVEVNGVDFSNLDHKEAVNVLKSSRSLTISIVAAAGRELFMTDR
notes: ANKS4B, human, residues 259-417 of UniProt Q8N8V4; as m43; Harmonin-a1 (USH1C), human, residues 1-301 of UniProt Q9Y6N9-1; as m31; also called ANKS4b+^YFPNPDZ1.PDZ2; ^YFPNPDZ1.PDZ2+ANKS4B_(CEN-PBM); source: purified E. coli proteins mixed
B3: YFP-SANS_(CEN-PBM) saturated with harmonin NPDZ1.PDZ2 (complex)
chain 1: B1 chain
chain 2: B2 chain 2
notes: SANS (USH1G), residues 300-461 of UniProt Q495M9; as m40; Harmonin-a1 (USH1C), human, residues 1-301 of UniProt Q9Y6N9-1; as m30; also called ^YFPSANS_(CEN-PBM)+NPDZ1.PDZ2; source: purified E. coli proteins mixed (saturating NPDZ1.PDZ2); not shown: YFP, N-terminal, kept
B4: ANKS4B_(CEN-PBM) (domain or fragment)
chain: B2 chain 1
notes: ANKS4B, human, residues 259-417 of UniProt Q8N8V4; source: E. coli (BL21-AI, BL21 (DE3) Rosetta or BL21-Gold (DE3)), purified (Histrap, CaptoQ, gel filtration)
B5: ANKS4B CEN-PBM (protein)
chain: VEEDDDVQHESILNRPGLGSIVFSRNRVLDFEDISDSKRELGFKMPSELFQRQGAAGTVEEEEEEEEEEEEEKREANGTAGDLPWDEEEVEWEEDAVDATPLEVFLQSQHLEEFLPIFMREQIDLEALLLCSDEDLQNIHMQLGPRKKVLSAIDKRKQVLQQPGQLVDTSL
B6: Harmonin NPDZ1 (non-fluorescent, as used in MST and SEC-MALS) (domain or fragment, human, UniProt Q9Y6N9-1 1-197, looked up)
chain: MDRKVAREFRHKVDFLIENDAEKDYLYDVLRMYHQTMDVAVLVGDLKLVINEPSRLPLFDAIRPLIPLKHQVEYDQLTPRRSRKLKEVRLDRLHPEGLGLSVRGGLEFGCGLFISHLIKGGQADSVGLQVGDEIVRINGYSISSCTHEEVINLIRTKKTVSIKVRHIGLIPVKSSPDEPLTWQYVDQFVSESGGVRG
notes: Harmonin-a1 (USH1C), human, N-terminal domain and PDZ1, residues 1-197 of UniProt Q9Y6N9-1; source: E. coli BL21 (DE3) Rosetta, purified (Glutathione Sepharose 4B, size-exclusion chromatography)

Assay [1] concerns the target T1, Myosin 7a MF1.SH3. As to the kind of experiment: SEC-MALS; Superdex 10/300 Increase; 20 mM Tris pH 7.0, 100 mM NaCl, 1 mM EGTA, 0.5 mM TCEP; samples at about 20 mg/ml. Particulars: both partners purified.
For assay [2], the target named is T2, Myosin 7b MF1.SH3. As to the kind of experiment: MST; YFP-fused partner held together with a third protein (saturating concentrations; competition experiments), non-fluorescent protein titrated. Particulars: both partners purified.
Assay [3] concerns the target T1, Myosin 7a MF1.SH3. Described as above. Particulars: both partners purified.
Assay [4] has as its target T3, YFP-Myosin 7b MF1.SH3. As to the kind of experiment: MST; YFP-fused partner constant at 100 nM, non-fluorescent protein titrated (16 two-fold dilutions); 20 mM Hepes pH 7.0, 100 mM NaCl, 1 mM EGTA, 0.5 mM TCEP, 0.05% Tween 20; Monolith NT.115. Particulars: both partners purified.
The target of assay [5] is T4, Myo7a MF1.SH3.
The target of assay [6] is T5, YFP-Full length (FL)-harmonin …. As to the kind of experiment: MST; as a1 but 150 mM NaCl (for FL-Harmonin-a); YFP-fused partner constant at 100 nM, non-fluorescent protein titrated. Particulars: both partners purified.
The target in assay [7] is B1. As to the kind of experiment: SEC-MALS; Superdex 10/300 Increase; 20 mM Tris pH 7.0, 100 mM NaCl, 1 mM EGTA, 0.5 mM TCEP; samples at about 20 mg/ml. Particulars: both partners purified.

As a reminder, the stoichiometry N is a count of units in the complex or per binding partner. As for B1, in assay [1], the “stoichiometry N” value came out at 1.
As a reminder, the Kd is the concentration at which binding is half-saturated. On to B2, for which the Kd in assay [2] stood at 4 µM.
B3: in assay [3], the Kd was found to be 0.386 µM.
As for B4, binding in assay [4] was put at a Kd of 2.9 ± 0.03 µM.
In assay [5], B5 displayed a Kd of about 5 µM.
B6 came in with a Kd in assay [6] of 11.3 µM. The “stoichiometry N” value in assay [7] was 1.
